These results are taken from publication PMC10244175, “Seeding the aggregation of TDP-43 requires post-fibrillization proteolytic cleavage” (Nature Neuroscience, 2023).

The data set deals with the molecule itself. Put plainly: cryo-EM structure; fibrils of recombinant CP (279–360); helical reconstruction in RELION; two populations (one protofilament 4.1 Å, two protofilaments 3.7 Å); model built for G281-G351.

B1: TDP-43 (279–360) core peptide (domain or fragment, UniProt Q13148 279-360, looked up)
chain: NPGGFGNQGGFGNSRGGGAGLGNNQGSNMGGGMNFGAFSINPAMMAAAQAALQSSWGMMGMLASQQNQSGPSGNNQNQGNMQ
notes: TDP-43 residues 279-360 (82 amino acids), part of the C-terminal domain; printed theoretical mass 8041.7 Da; the atomic model PDB 7Q3U covers G281-G351; The fusion is written as His6-Sumo-TDP-43 (279–360) CP; the tag is removed by Ulp-1; also called CP; CP (279–360); source: E. coli ER2566, purified (Ni-NTA, Ulp-1 cleavage, reverse-phase HPLC C18), lyophilized; fibrils formed at 50 µM in …
As for B1, the binding result is “binds”.
